Assay: soluble on expression in E. coli; label from the status in PepcDB or PDB records

Row | Sequence | soluble on expression in E. coli
1 | MGSDKIHHHHHHMNEKTSVSSDRRDFWDGRAREFSEHAASTGYPRAFLRILKPRKSWTVLDMACGGGTIAIPLANRVKFITAVDFSMRMLEIVEQRCLAGKITNVKTLQGRWEDDWDDLGIGVHDVAIASRSLLSETAMDSIAKLNRAATKAVYISVAVGSGPFDWRLLEAADRERNTRPDYIFYYNLLYEMGIPANVSFIPESYRNSWESHEEAFEDQLWMFQGMTGEEEEKVRAYLREHLVWVKGHWQLPYSRNYYWAVLYWTKDREIGS | not soluble
2 | MGSDKIHHHHHHMNFETVIGLEVHVELKTKSKIFSSSPTPFGAEANTQTSVIDLGYPGVLPVLNKEAVEFAMKAAMALNCEIATDTKFDRKNYFYPDNPKAYQISQFDKPIGENGWIEIEVGGKTKRIGITRLHLEEDAGKLTHTGDGYSLVDFNRQGTPLVEIVSEPDIRTPEEAYAYLEKLKSIIQYTGVSDCKMEEGSLRCDANISLRPIGQEEFGTKTELKNLNSFAFVQKGLEHEEKRQEQVLLSGGVIQQETRRYDEATKKTILMRVKEGSDDYRYFPEPDLVELYIDDEWKERVKASIPELPDERRKRYIEELGLPAYDAMVLTLTKEMADFFEETVQKGAEAKQASNWLMGEVSAYLNAEQKELADVALTPEGLAGMIKLIEKGTISSKIAKKVFKELIEKGGDAEKIVKEKGLVQISDEGVLLKLVTEALDNNPQSIEDFKNGKDRAIGFLVGQIMKASKGQANPPMVNKILLEEIKKR | not soluble
3 | MGSDKIHHHHHHMNGFCARLRAITHNERLKMKIAVLLSGGVDSSYSAYSLKEQGHELVGIYLKLHASEKKHDLYIKNAQKACEFLGIPLEVLDFQKDFKSAVYDEFINAYEEGQTPNPCALCNPLMKFGLALDHALKLGCEKIATGHYARVKEIDKISYIQEALDKTKDQSYFLYALEHEVIAKLVFPLGDLLKKDIKPLALNAMPFLGTLETYKESQEICFVEKSYIDTLKKHVEVEKEGVVKNLQGEVIGTHKGYMQYTIGKRKGFSIKGALEPHFVVGIDAKKNELVVGKKEDLATHSLKAKNKSLMKDFKDGEYFIKARYRSVPAKAHVSLKDEVIEVGFKEPFYGVAKGQALVVYKDDILLGGGVIV | not soluble
4 | MGSDKIHHHHHHMNIAIIGSGLTGSLAAISLAKAGCRVDLYERLSDEELVNRDRTYAITHSSRKILEKLGIWSNLSRDLVPFQFLNVIDYELNKKFVFLTNDLPIPDQKYSAVGWIAEHKFIMLSILSVISNLENINKIPTSVIPNTNNYDLIVAADGSSSNTKKKLNTPSFHFKYDQMCITAKVLLRGVKSNEAFEILNSEGPFAVLPLGGDLFQVICSQSILKGTYNMNLSKSLFLDYLSTILPYGIEPDTIIDSPESFPIDFCLNYLFFSGKYIYLGETAHKIHPVGGQGLNLCWRDVDCLSKLLSIPLLKNNHSLIPLIYSISRSFDVLSISILTDSLVRYSRSNISIFYLPRLLVFFILKKSSLFRKYILNLMTNGF | not soluble
5 | MGSDKIHHHHHHMNILIVYGTTEGQTGKIAARTATHLRERGHQVELRDSAALASDLKLGHFDAFVIAASVHQEHHQETVTNFVFAHHEALSTKPSALISVSLSAALGDQKKDAQKYVDRFVSVTDWQPSMTLLLGGALRFNKYDYFQEQFVKFVVMKSGDPSPERDHEFTDWNALANFADRFLETAG | not soluble
6 | MGSDKIHHHHHHMNIQSIEPTPSPNTMKLTLDQTLPQGKSNNYTLKNKEEAPPFIQKLFEIEGVKGVYHVADFLAIERNAKVDWKVILPKVRAVFGDETGDGPQKEKPEVQEGYGEVQVFLQLFKGIPMQIKLSNGEEEVREGLPERFANAAFAAQQPDDNVVLERKWVEQGVRYGELADVAKDVAEEVSAAFSQERLDRLVNIAKGLVDKTQEQTEERFRKVTLADMEQDDWRDRYAALDKMDPTEEDLPVLEKALQDEKASIRRLATVYLGMIEKPVVLPLLEKALKDPSVTVRRTAGDCMSDIGDPAAIPAMIEALKDKNKLVRWRAAMFLYEVGDETAIDALRLAEDDPEFEVAMQVKMALERIVGGEEAKGSVWKQMTEEMAKGKNE | not soluble
7 | MGSDKIHHHHHHMNIRSRTNNADDLAWVHLIERRKQVELWQFSCLRQSYTLELSPNVMEGVKPEGQLVMVQWSPSNDLQRVKVTLNIHEVTDQAAVNHHFKLVPAGCESIIIDIWGILGLIHDEALRRFYLAVLLNNELMGQFFNARASRSHHHNHACGLLEHSHEVAVTAAMLCWRYNVGPLSVGVAFIGGLLHDIGKIHLFYNADTRDGIAGSHESYNFMVLAEPLELLYRSSPKVFEALSSCLSVKIGRRSEAYIPASMVRLCDNLSMEVCHWRTAFADVPPHHWYAHSAMNDQWYKRLG | not soluble
8 | MGSDKIHHHHHHMNIYDQLQAVEDRYEELGELLSDPDVVSDTKRFMELSREEANSRETVAVYREYKQVVQNIADAQEMIKDASGDPELEEMAKEELKNSKVAKEEYEEKLRFLLLPKDPNDDKNIILEIRGAAGGDEAALFAGDLLNMYQKYAENQGWKFEVMEASANGVGGLKEVVAMVSGQSVYSKLKYESGAHRVQRVPVTESQGRVHTSTATVLVMPEVEEVEYEIDPKDLRVDIYHASGAGGQNVNKVATAVRIIHLPTNIKVEMQEERTQQKNRDKAMKIIRARVADHFAQIAQDEQDAERKSTVGTGDRSERIRTYNFPQNRVTDHRIGLTLQKLDSILSGKLDEVIDALILYDQTQKLEELNK | soluble
9 | MGSDKIHHHHHHMNKDLFISSFDHRVYKKQPLAERMRPHSLNDVTGQSHLVGEKGLLSRIVAAGSIGSMIFWGPPGTGKTTVARLLALETNFAFEQVSAIFTGVAELKKIFESAQARFMSGSQTVLFVDEIHRFNRAQQDSFLPVMEDGTVILIGATTENPSFELNAALLSRARVLTFLPHDNESLGMLLKRAEALEEKTLPLDDNARDVLIDMSDGDARAALTLAEEVWSVARPGEIFDAAALRKIVQRRAPIYDKGRDGHYNLISALHKSVRGSDPDAALYYLARMFDAGEDPLYIGRRLVRMAVEDVGLADPQALVICNAAKDAYDYLGSPEGELALAQACLYVATAPKSNATYLAYKAAMRCARKNGSLPPPKHILNAPTKFMKEEGYGHGYCYDHDEPDAFSGQEYFPEKLGRQSYYQPVERGFEREIAKRLEWWKQLRKKRANQK | not soluble
10 | MGSDKIHHHHHHMNKKIIEKEILSKVIKKRKEGSNKTNYGRILLICGSQSFGGAAIMASKAVVYSGAGLVTLASDMINRAPFLSSVSEAMFLDYTRTDKLINSIAKSDVILIGSGLEDSDFSFSLLKLVFQNAKTNQLLVLDGTALSMIGKRNLNIPKKPTIIMTPHQGEWQRVSGLSISEQVPVQNYKKMVDLNIDFLVLKSSATEIYALQNPREYKELNIGGPFQAIGGMGDTLAGLIAGFLGQFKNDQISVIQAATYLHSYIARNLSQKQYVTLPTRISEQIPTEMKKIIQTSKY | not soluble
11 | MGSDKIHHHHHHMNKNMIKGMIVFAAIAEKGSMSAAAQQLNLSSSAVSQQVTKLEMDMGISLFHRNTRNLTLTEAGSLFYENCRKVIAIVESTEQKLNNLKGIPSGELKIAAPIGFGGGLLSEPFNYLLAAHPQISLNLLLQDGPIDIVNEGIDLAICIGPLSDSNLIARHLADWRMLLCASPDYLPMHKIFKHPAELAAFNRINHPCANSETLTHVRNKECFELTSQRITVNNMQALIQLTLDGLGFAALPEPEVHKYLESGQLVTLLPEWSLNTYSVYSVTSARDKQPAKVKEALNTLSQYFSQANFNPAYHFKQCVQKDGTKGSVTNILPIKPKQASHHADVDHAS | not soluble
12 | MGSDKIHHHHHHMNKNNQYVLSLACQDAPGIVSEVSTFLFNNGANIVEAEQFNDEDSSKFFMRVSVEIPVAGVNDFNSAFGKVVEKYNAEWWFRPRTDRKKVVIMVSKFDHCLGDLLYRHRLGELDMEVVGIISNHPREALSVSLVGDIPFHYLPVTPATKAAQESQIKNIVTQSQADLIVLARYMQILSDDLSAFLSGRCINIHHSFLPGFKGAKPYHQAHTRGVKLIGATAHFVTADLDEGPIIAQDVEHVSHRDSAEDLVRKGRDIERRVLSRAVLLFLEDRLIVNGERTVVFAD | not soluble
13 | MGSDKIHHHHHHMNKPLDKQLAELDIFSLLLFRAIFETGHANIAARQLDVSAPKVSRALASLRLIFADELFYRRQQGFRPTPLAEQIYPAIRELTDSINLLGMQLKDHQAFHRQECQVFDLAVSSGILTTLALEFNRREGLCPSVVLHHWQENTADRIHAGELDLGLALAPEPHTELSYERLCDAPGLCLVGAANHPIWQYTDICLEHICEYPFLCMNYPGFNDKVDPLELFCHREGLIPPTVLRVTDKEEWFGHLLCQHSLAFASPLEWGLLNALPGVEIKHLPAKEISRLHSGSAVPGLYLIEKPAHHRRYSPDDREKLLHIISLTLGLVTEDHPVNFSI | not soluble
